Assay results taken from the supplement of paper PMC12042874.
± gives the uncertainty stated by the source.

Experiment: amyloid nucleation score (Sup35N fusion, yeast selection) (log enrichment); library NNK1; higher = more nucleation; inactive = no reads after selection
Method in brief: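 After 24 hours of induction with 100 μM copper sulfate, psi-negative yeast expressing peptides of 20 random codons fused to Sup35N were grown for 7 days at 30°C on medium lacking adenine and uracil. Input and output plasmid inserts were sequenced with Illumina, and sequences with under 100 input reads were discarded. Scores for nucleation are the DiMSum log enrichment of output over input reads, centred on the mode score of non-aggregating sequences.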

Row | Substance | amyloid nucleation score
1 | ITETSSSETMLLVVRTWEVW | 0.332 ± 0.63
2 | ITGLVRLFC | 0.134 ± 1
3 | ITKLIVSFQGFFV | 4.24 ± 0.12
4 | ITMWMPRILRVTITYDTRG | 0.111 ± 1.2
5 | ITREVSL | 1.36 ± 0.61
6 | ITSRVQFRETHTYIMYLEAW | 0.138 ± 0.43
7 | ITTIMTAVTVSPPQSMWFVS | 1.96 ± 0.25
8 | ITVYLMALVNNVCG | 3.38 ± 0.13
9 | ITYMYGYCMDYF | 0.439 ± 0.38
10 | ITYSLSIYSSRAICLYVWGG | -0.119 ± 0.62
11 | ITYTGASR | 0.295 ± 0.57
12 | IVCSGLCHIN | 7.08 ± 0.071
13 | IVDPWY | 2.56 ± 0.12
14 | IVFFQEDGSWAEWFVGEVLT | 0.557 ± 0.42
15 | IVGLQAVENIRNSCICLFMK | 4.5 ± 0.065
16 | IVHIHGLQAANLAASWSANL | 2.68 ± 0.18
17 | IVLFSPFTW | -0.062 ± 0.31
18 | IVLGYFRGIHFLGVLGMLIK | inactive
19 | IVMQVLTQTVMWIFYLNGSH | -0.254 ± 0.42
20 | IVMVVMSSFGINEHPPDNQN | 1.35 ± 0.27
21 | IVNSKCRFWYYINGTVIFFL | 6.331 ± 0.059
22 | IVNVSCITNVDGGSLADSAV | 2.48 ± 0.25
23 | IVPRAFIAWIAYQGRSPYGA | 0.619 ± 1.2
24 | IVQIIPGVCCA | 0.311 ± 1.2
25 | IVSNAIIPTGEG | 0.283 ± 0.71
26 | IVTEVGGVVDEYARWPVGMT | 8.737 ± 0.05

Row | Substance | amyloid nucleation score
27 | IVTRWY | -0.257 ± 0.21
28 | IVTSMSYNFLLKLMAGPQLR | 0.274 ± 0.67
29 | IVVKV | -0.035 ± 0.97
30 | IVYRPLAFVAVSCSESGHSV | 4.56 ± 0.087
31 | IWALKVWLRLTYCHICFRVV | 0.265 ± 0.58
32 | IWCSCAYRGVGMSTGFAIIY | 1.13 ± 0.58
33 | IWFLHHEVKF | 0.603 ± 0.58
34 | IWLVQIHVSSSMPTSYPHIS | 0.355 ± 1.4
35 | IWRFIFGFGVYVCNGMALSQ | 0.291 ± 0.53
36 | IWTFRYVFRIFTCSDGTMVH | -0.108 ± 0.42
37 | IYARNIRRLTRFPDLLDLVM | 1.47 ± 0.17
38 | IYASLNVEICFADLPWSTWV | 0.358 ± 0.81
39 | IYCEEFMLEMTSRIRV | -0.976 ± 0.47
40 | IYCYSYYLCSFLCVYDISKG | -0.457 ± 0.79
41 | IYEMVGLTNVEFWYTKKYCS | -0.003 ± 0.18
42 | IYGDGNCIIFLMGQRP | 6.38 ± 0.085
43 | IYGGYEK | 0.626 ± 0.84
44 | IYKVEFLTCFLDEGGWSPKV | -0.692 ± 0.95
45 | IYNWH | 0.849 ± 0.66
46 | IYRAHYAIYSAF | -0.026 ± 0.64
47 | IYRSHRMPKSTRTLV | -1.16 ± 1.9
48 | IYRSMNRLVVQEGYAFIGGG | 2 ± 0.3
49 | IYVITVRPNVHNTLMHLIVT | 0.374 ± 0.73
50 | IYWCMM | 7.125 ± 0.057
51 | KAAGMGSCSYTMVNYTPDAG | 1.39 ± 0.23
52 | KAEVRVRARELAEGMGARGR | 0.693 ± 0.72

Row | Substance | amyloid nucleation score
53 | KAEYSDLASFGCHGHEEGGG | 0.793 ± 1
54 | KAFIQTVLRNQVSWLANTPH | -0.745 ± 0.98
55 | KANFFTLRSMFWGPMN | 1.15 ± 0.64
56 | KASCVVLAMLWLVLALGEPG | 0.116 ± 0.81
57 | KCFAFRSLAHIASTCGWCLN | 2.4 ± 0.31
58 | KCIQGTGSLWD | -0.128 ± 0.3
59 | KCIWFMHDFCYMVLMR | -0.164 ± 0.72
60 | KDARLHFSWRL | 0.933 ± 0.6
61 | KDLLMKV | 0.507 ± 0.64
62 | KEILVGLPMGGVRGCGSSSG | 0.505 ± 1.2
63 | KESLLLTQCGYYMGSAKMVW | -1.03 ± 1.1
64 | KETSGYRFYRMANLP | -0.21 ± 1.2
65 | KEWFYYLVDELCGGLCNPVR | 0.39 ± 1.2
66 | KEYGVSL | -0.93 ± 0.55
67 | KEYNLLHDL | -0.691 ± 1.7
68 | KFILTVPMANSATYTFACLD | inactive
69 | KFMVNVIV | 1.24 ± 0.22
70 | KFNDDRNGIATLQRHHIAGF | -0.969 ± 0.71
71 | KFSCGTFSLRHPT | 0.725 ± 0.52
72 | KFVYVVVMSMARACRNVPGH | 0.272 ± 0.39
73 | KFYYSLDVSSRCNFVLLEVE | 0.669 ± 0.65
74 | KGAGMQTTQCVCKVYKLSWA | 0.281 ± 0.24
75 | KGFVDNYVTVIVVWT | 1.64 ± 0.18
76 | KGGPRPQMC | -0.244 ± 0.27
77 | KGICRGRSLSVPESWAPFR | 0.133 ± 0.31
78 | KGMLLCYFPNKCPAWEAKCG | 5.17 ± 0.059

Row | Substance | amyloid nucleation score
79 | KGRSNLIADFGDLFGGLYTY | -0.57 ± 0.37
80 | KGVCMTRHD | -0.136 ± 1.6
81 | KHRLGQSMVSVRHYRFWGRI | -0.437 ± 0.57
82 | KIILPVSGVKINMQAWSRSH | 4.07 ± 0.091
83 | KIKLMF | -0.416 ± 1.6
84 | KILRYSTTGSSELEWWNMRS | 0.069 ± 0.49
85 | KIRVDRFNIRSCDIGSDLCY | -1.07 ± 0.43
86 | KISVSTVLSLLFGI | 1.3 ± 0.76
87 | KKDTDRSIVFVSLYSPDSKA | -0.064 ± 0.5
88 | KKFEVSL | 0.159 ± 0.68
89 | KKFFRVLLSLSSMLVLCCFQ | -0.317 ± 1.4
90 | KKLNSCF | 0.533 ± 0.63
91 | KKVFFHKRVLSDARCKPVKS | -0.567 ± 0.41
92 | KKYLVNNYFLGFR | 0.127 ± 0.25
93 | KLAYKRSQMLTVVPRCSQGT | -0.39 ± 0.53
94 | KLDCMVDDICGTSGTVFLCL | 4.85 ± 0.061
95 | KLDGVVPDVYLSGRLPQAWL | 0.205 ± 0.86
96 | KLEGSARSGTTSRGSFSECV | 0.254 ± 0.38
97 | KLIPCLLVITINLGHKATLS | 0.482 ± 0.39
98 | KLNVFDLVNRAKVGHCGSSG | 0.026 ± 0.51
99 | KLRIRSWKVFTPNSLLVVAI | -0.893 ± 1.1
100 | KLYGTRFPQFSRSVNEYC | 0.111 ± 0.36
101 | KMLFGH | -0.085 ± 0.79
102 | KMLSMLTDRSFWLNHWSFFQ | -0.573 ± 1.4
103 | KMSNCWLF | -0.881 ± 0.55
104 | KNCAAFLHRHGFEVAQRGTC | -0.337 ± 0.78

Row | Substance | amyloid nucleation score
105 | KNDDTRFR | 0.358 ± 0.31
106 | KNDGYIH | -0.561 ± 1.4
107 | KNVNAVR | 0.173 ± 0.79
108 | KPDRQVANFRDWFG | -0.244 ± 1.2
109 | KPWYFVISW | -0.007 ± 1.2
110 | KQSCWALSYVYMTSHVLSGG | 0.495 ± 1.4
111 | KRGNPMTHAFLWPVMSYVFR | 0.295 ± 0.97
112 | KRMVCDVCIDVMPSEFKQAG | 1.02 ± 0.76
113 | KRSANVYRLRCLGGKMLHVN | 3.34 ± 0.081
114 | KRWYTCYVYVFRICMRVLCR | 0.731 ± 0.38
115 | KSEDTSRFYTLMMSMYTQRF | 1.76 ± 0.14
116 | KSKRWELLPFEVRAARAVGQ | -0.024 ± 0.3
117 | KSLFNYCVFSDGL | 7.281 ± 0.051
118 | KSQDKRYLSIPGCVLSFWGE | 0.069 ± 0.46
119 | KSQLRQSTYPS | -0.358 ± 0.82
120 | KSSSV | -0.352 ± 0.6
121 | KSSTKGLISRGRFGYRVPSN | -0.215 ± 1.7
122 | KSTSQSYVIFFAQCFKYTTV | -0.592 ± 0.31
123 | KSYSMMMSMMGNRMWVKRLV | -0.02 ± 0.5
124 | KTCYLQ | -0.284 ± 1.1
125 | KTFYLWW | 3.04 ± 0.14
126 | KTGPAA | -0.17 ± 0.73
127 | KTRFMLVLKLKRDNDLKMRF | -0.288 ± 0.3
128 | KTWVYSRRRRCVRPGCCGDV | 3.3 ± 0.16
129 | KVGLLWGT | 0.197 ± 0.93
130 | KVKANILVFLTKLSMRPTKP | 1.86 ± 0.29

Row | Substance | amyloid nucleation score
131 | KVPDALFVDRLLYQVISCIH | 3.47 ± 0.084
132 | KVVRAACCQKMFERVGVHGG | -0.842 ± 0.94
133 | KVYYYKPLIRNPTSFLITIL | 0.817 ± 0.47
134 | KWRNLSS | 0.631 ± 0.89
135 | KWVWDLMMVDSGLRLSSHVL | 0.026 ± 0.35
136 | KYEMRITVGRGYFSGRMHAC | 0.494 ± 0.78
137 | KYKVVI | -0.289 ± 0.24
138 | KYVIGVNAMEWWPTTTAI | 0.166 ± 1.6
139 | KYWGS | inactive
140 | KYYMHLSSRDRRGAAWHLLF | -0.075 ± 0.29
141 | LACCFIVSWFNGSGSLTSRS | 7.497 ± 0.05
142 | LACSVAA | -0.493 ± 0.34
143 | LAGIVCEWWFGWVGDVQLAF | -0.604 ± 0.85
144 | LALHSNNQLFF | 0.839 ± 0.81
145 | LATNFCDTMRYVNGFRIAWC | 0.647 ± 0.66
146 | LAVTFQGIGFSYSILHITTY | -0.164 ± 0.44
147 | LAWVGVLW | -0.219 ± 1.1
148 | LCANNFHHVDKTGFAICNIH | 3.64 ± 0.051
149 | LCDFLNAYEINGKFSCGGTR | 0.084 ± 0.38
150 | LCEHKSRLVEDAKGGET | -0.043 ± 0.47
151 | LCFYDKYGPQYL | -0.59 ± 0.54
152 | LCGDHLFWLDVGDAVGVFLA | 0.176 ± 0.4
153 | LCGTMWAG | 0.62 ± 0.51
154 | LCKFYPAFTGTTCTNLLSVW | 0.321 ± 0.84
155 | LCLFFGLHLWVWMRKACCY | -0.205 ± 0.31
156 | LCLKF | 0.77 ± 0.97

Row | Substance | amyloid nucleation score
157 | LCLLCNRYRWTN | 7.041 ± 0.048
158 | LCLRLCPLMVWSCVLERWVS | -1.78 ± 2.7
159 | LCSDIG | -0.09 ± 0.4
160 | LCSLTGLGYAMHVYVSLDVQ | 0.086 ± 0.5
161 | LCTLTVNYRSEHSYFYCINF | -0.319 ± 0.41
162 | LCWTIWV | -1.61 ± 2.4
163 | LDCYRLRCSLEAIECVISNE | -0.479 ± 0.21
164 | LDEVHESSIRSGNY | 3.12 ± 0.17
165 | LDHGEFTKYFRLTRCVSTCC | -0.339 ± 0.97
166 | LDMVANYLYSGSALILYCHL | -1.17 ± 2.1
167 | LDSAYSGGKCYTWFNIRRFV | 0.361 ± 0.86
168 | LDSCPAL | 0.47 ± 0.57
169 | LDVYCH | inactive
170 | LEFGSSSGAIVMRGEDPCQP | 0.649 ± 0.52
171 | LEFVYNH | 1.44 ± 0.74
172 | LEITTHTSGIILMKGTPLRR | 3.14 ± 0.087
173 | LELTIRVRNSIVI | inactive
174 | LEMGDPCQYCLDLFAGYPSG | 0.549 ± 0.55
175 | LEPNCVLSYTDSFVNQFVTL | 0.119 ± 0.3
176 | LEWGQPHPCSGFRKCWYSDV | 0.136 ± 0.58
